Source: the supplement of paper PMC9112550, “Optimization of the antimicrobial peptide Bac7 by deep mutational scanning” (BMC Biology, 2022)
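Further: peptides expressed intracellularly from a pBAD plasmid library in pooled LB shake-flask culture, induced with 0.3% L-arabinose, DNA abundance read by NGS, three biological replicates, DESeq2 with apeglm shrinkage.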

What follows are sequences tested on Escherichia coli TOP10 (assay: shrunken log2 fold change of peptide-encoding DNA abundance (4.5 h post-induction vs induction); higher = less antimicrobial activity (less host growth inhibition)). Conditions: time post-induction: 4.5 h; library: site-saturation at positions 5, 18, 19, 20.
RRIRRRPPRLPRPRPRPNFFPRP was tested, and the “shrunken log2 fold change” value was 0.184. RRIRRRPPRLPRPRPRPNFSPRP was tested, and the “shrunken log2 fold change” value was 0.211. RRIRRRPPRLPRPRPRPNHSPRP was tested, and the “shrunken log2 fold change” value was -0.321. RRIRRRPPRLPRPRPRPNISPRP was tested, and the “shrunken log2 fold change” value was -0.263. In the case of RRIRRRPPRLPRPRPRPNLRPRP, the “shrunken log2 fold change” value is reported as 0.00766. RRIRRRPPRLPRPRPRPNMEPRP was tested, and the “shrunken log2 fold change” value was 0.0673. For RRIRRRPPRLPRPRPRPNPCPRP, the “shrunken log2 fold change” value was 0.0776. With RRIRRRPPRLPRPRPRPNQAPRP the “shrunken log2 fold change” value was 0.212. For RRIRRRPPRLPRPRPRPNRCPRP, the “shrunken log2 fold change” value was 0.118. In the case of RRIRRRPPRLPRPRPRPNRKPRP, the “shrunken log2 fold change” value is reported as 0.105. With RRIRRRPPRLPRPRPRPNSIPRP the “shrunken log2 fold change” value was -0.236. For RRIRRRPPRLPRPRPRPNTVPRP, the “shrunken log2 fold change” value was -0.107. RRIRRRPPRLPRPRPRPNVVPRP was tested, and the “shrunken log2 fold change” value was 0.0745. With RRIRRRPPRLPRPRPRPNVWPRP the “shrunken log2 fold change” value was 1.99. For RRIRRRPPRLPRPRPRPPCLPRP, the “shrunken log2 fold change” value was 0.426. In the case of RRIRRRPPRLPRPRPRPPCWPRP, the “shrunken log2 fold change” value is reported as 0.325. RRIRRRPPRLPRPRPRPPDDPRP was tested, and the “shrunken log2 fold change” value was 0.743. RRIRRRPPRLPRPRPRPPEFPRP was tested, and the “shrunken log2 fold change” value was 0.614. With RRIRRRPPRLPRPRPRPPEKPRP the “shrunken log2 fold change” value was 1.6. In the case of RRIRRRPPRLPRPRPRPPFKPRP, the “shrunken log2 fold change” value is reported as 0.321. With RRIRRRPPRLPRPRPRPPFWPRP the “shrunken log2 fold change” value was 0.959. For RRIRRRPPRLPRPRPRPPIHPRP, the “shrunken log2 fold change” value was -0.11. In the case of RRIRRRPPRLPRPRPRPPKNPRP, the “shrunken log2 fold change” value is reported as 0.671. RRIRRRPPRLPRPRPRPPLTPRP was tested, and the “shrunken log2 fold change” value was 0.841. In the case of RRIRRRPPRLPRPRPRPPMTPRP, the “shrunken log2 fold change” value is reported as 0.43. In the case of RRIRRRPPRLPRPRPRPPPRPRP, the “shrunken log2 fold change” value is reported as 1.32. In the case of RRIRRRPPRLPRPRPRPPQCPRP, the “shrunken log2 fold change” value is reported as 1.55. For RRIRRRPPRLPRPRPRPPQEPRP, the “shrunken log2 fold change” value was 0.405. RRIRRRPPRLPRPRPRPPQLPRP was tested, and the “shrunken log2 fold change” value was 1.02. RRIRRRPPRLPRPRPRPPRPPRP was tested, and the “shrunken log2 fold change” value was 1.01. With RRIRRRPPRLPRPRPRPPTDPRP the “shrunken log2 fold change” value was 0.709. RRIRRRPPRLPRPRPRPPTKPRP was tested, and the “shrunken log2 fold change” value was 0.52. For RRIRRRPPRLPRPRPRPPYKPRP, the “shrunken log2 fold change” value was 0.114. RRIRRRPPRLPRPRPRPPYVPRP was tested, and the “shrunken log2 fold change” value was 0.181. With RRIRRRPPRLPRPRPRPQAGPRP the “shrunken log2 fold change” value was -9.87e-05. In the case of RRIRRRPPRLPRPRPRPQAYPRP, the “shrunken log2 fold change” value is reported as 0.0231. In the case of RRIRRRPPRLPRPRPRPQCPPRP, the “shrunken log2 fold change” value is reported as -0.178. For RRIRRRPPRLPRPRPRPQDQPRP, the “shrunken log2 fold change” value was 0.168. For RRIRRRPPRLPRPRPRPQFCPRP, the “shrunken log2 fold change” value was -0.0309. In the case of RRIRRRPPRLPRPRPRPQFHPRP, the “shrunken log2 fold change” value is reported as -0.133. RRIRRRPPRLPRPRPRPQFNPRP was tested, and the “shrunken log2 fold change” value was -0.323. In the case of RRIRRRPPRLPRPRPRPQGCPRP, the “shrunken log2 fold change” value is reported as -0.189. RRIRRRPPRLPRPRPRPQGRPRP was tested, and the “shrunken log2 fold change” value was 0.544. With RRIRRRPPRLPRPRPRPQHGPRP the “shrunken log2 fold change” value was 0.198. In the case of RRIRRRPPRLPRPRPRPQHKPRP, the “shrunken log2 fold change” value is reported as 0.0372. RRIRRRPPRLPRPRPRPQHTPRP was tested, and the “shrunken log2 fold change” value was 0.191. In the case of RRIRRRPPRLPRPRPRPQISPRP, the “shrunken log2 fold change” value is reported as -0.0603. For RRIRRRPPRLPRPRPRPQKGPRP, the “shrunken log2 fold change” value was -0.138. RRIRRRPPRLPRPRPRPQMLPRP was tested, and the “shrunken log2 fold change” value was 0.246. For RRIRRRPPRLPRPRPRPQMPPRP, the “shrunken log2 fold change” value was 0.283. In the case of RRIRRRPPRLPRPRPRPQQLPRP, the “shrunken log2 fold change” value is reported as -0.0976. RRIRRRPPRLPRPRPRPQQQPRP was tested, and the “shrunken log2 fold change” value was -0.0864. With RRIRRRPPRLPRPRPRPQRHPRP the “shrunken log2 fold change” value was -0.0855. In the case of RRIRRRPPRLPRPRPRPQRTPRP, the “shrunken log2 fold change” value is reported as 0.152. With RRIRRRPPRLPRPRPRPQSAPRP the “shrunken log2 fold change” value was 0.123. RRIRRRPPRLPRPRPRPQSQPRP was tested, and the “shrunken log2 fold change” value was 0.112. RRIRRRPPRLPRPRPRPQTIPRP was tested, and the “shrunken log2 fold change” value was 0.272. In the case of RRIRRRPPRLPRPRPRPQTNPRP, the “shrunken log2 fold change” value is reported as 0.257. For RRIRRRPPRLPRPRPRPQVVPRP, the “shrunken log2 fold change” value was 0.0705. RRIRRRPPRLPRPRPRPQWHPRP was tested, and the “shrunken log2 fold change” value was 0.181. In the case of RRIRRRPPRLPRPRPRPQYEPRP, the “shrunken log2 fold change” value is reported as -0.00402. RRIRRRPPRLPRPRPRPRAKPRP was tested, and the “shrunken log2 fold change” value was 0.203. In the case of RRIRRRPPRLPRPRPRPRCFPRP, the “shrunken log2 fold change” value is reported as 0.474. With RRIRRRPPRLPRPRPRPRCSPRP the “shrunken log2 fold change” value was 0.152. RRIRRRPPRLPRPRPRPRCWPRP was tested, and the “shrunken log2 fold change” value was 0.486. For RRIRRRPPRLPRPRPRPREDPRP, the “shrunken log2 fold change” value was 0.811. In the case of RRIRRRPPRLPRPRPRPREEPRP, the “shrunken log2 fold change” value is reported as 0.919. For RRIRRRPPRLPRPRPRPRGNPRP, the “shrunken log2 fold change” value was 0.524. In the case of RRIRRRPPRLPRPRPRPRHNPRP, the “shrunken log2 fold change” value is reported as -0.14. For RRIRRRPPRLPRPRPRPRKFPRP, the “shrunken log2 fold change” value was 0.491. In the case of RRIRRRPPRLPRPRPRPRKLPRP, the “shrunken log2 fold change” value is reported as 0.253. For RRIRRRPPRLPRPRPRPRLRPRP, the “shrunken log2 fold change” value was 0.848. In the case of RRIRRRPPRLPRPRPRPRMDPRP, the “shrunken log2 fold change” value is reported as 2.27. RRIRRRPPRLPRPRPRPRNAPRP was tested, and the “shrunken log2 fold change” value was 0.356. RRIRRRPPRLPRPRPRPRNKPRP was tested, and the “shrunken log2 fold change” value was 0.0888. In the case of RRIRRRPPRLPRPRPRPRPFPRP, the “shrunken log2 fold change” value is reported as 0.699. RRIRRRPPRLPRPRPRPRPQPRP was tested, and the “shrunken log2 fold change” value was 0.541. RRIRRRPPRLPRPRPRPRQFPRP was tested, and the “shrunken log2 fold change” value was 0.225. In the case of RRIRRRPPRLPRPRPRPRQPPRP, the “shrunken log2 fold change” value is reported as 0.997. RRIRRRPPRLPRPRPRPRRFPRP was tested, and the “shrunken log2 fold change” value was 0.352. With RRIRRRPPRLPRPRPRPRTFPRP the “shrunken log2 fold change” value was 0.338. For RRIRRRPPRLPRPRPRPRTIPRP, the “shrunken log2 fold change” value was 0.134. RRIRRRPPRLPRPRPRPRTQPRP was tested, and the “shrunken log2 fold change” value was 0.19. For RRIRRRPPRLPRPRPRPRVYPRP, the “shrunken log2 fold change” value was 0.335. For RRIRRRPPRLPRPRPRPRWLPRP, the “shrunken log2 fold change” value was 0.388. RRIRRRPPRLPRPRPRPRWWPRP was tested, and the “shrunken log2 fold change” value was 0.318. For RRIRRRPPRLPRPRPRPRYFPRP, the “shrunken log2 fold change” value was 0.502. For RRIRRRPPRLPRPRPRPSAQPRP, the “shrunken log2 fold change” value was 0.234. RRIRRRPPRLPRPRPRPSDEPRP was tested, and the “shrunken log2 fold change” value was -0.0356. For RRIRRRPPRLPRPRPRPSDTPRP, the “shrunken log2 fold change” value was -0.0536. For RRIRRRPPRLPRPRPRPSFQPRP, the “shrunken log2 fold change” value was 0.0356. In the case of RRIRRRPPRLPRPRPRPSGMPRP, the “shrunken log2 fold change” value is reported as -0.0586. For RRIRRRPPRLPRPRPRPSGWPRP, the “shrunken log2 fold change” value was 0.333. RRIRRRPPRLPRPRPRPSGYPRP was tested, and the “shrunken log2 fold change” value was -0.201. For RRIRRRPPRLPRPRPRPSKWPRP, the “shrunken log2 fold change” value was -0.149. With RRIRRRPPRLPRPRPRPSLMPRP the “shrunken log2 fold change” value was -0.0626. For RRIRRRPPRLPRPRPRPSMIPRP, the “shrunken log2 fold change” value was -0.114. With RRIRRRPPRLPRPRPRPSMYPRP the “shrunken log2 fold change” value was -0.345. In the case of RRIRRRPPRLPRPRPRPSNDPRP, the “shrunken log2 fold change” value is reported as -0.162. With RRIRRRPPRLPRPRPRPSPEPRP the “shrunken log2 fold change” value was 0.513. For RRIRRRPPRLPRPRPRPSPGPRP, the “shrunken log2 fold change” value was 0.258. In the case of RRIRRRPPRLPRPRPRPSPVPRP, the “shrunken log2 fold change” value is reported as 0.379. For RRIRRRPPRLPRPRPRPSRWPRP, the “shrunken log2 fold change” value was 0.08. For RRIRRRPPRLPRPRPRPSWHPRP, the “shrunken log2 fold change” value was -0.0466. For RRIRRRPPRLPRPRPRPSWYPRP, the “shrunken log2 fold change” value was 0.363. RRIRRRPPRLPRPRPRPSYIPRP was tested, and the “shrunken log2 fold change” value was -0.416. For RRIRRRPPRLPRPRPRPTAIPRP, the “shrunken log2 fold change” value was 0.211. With RRIRRRPPRLPRPRPRPTCSPRP the “shrunken log2 fold change” value was 0.0172. For RRIRRRPPRLPRPRPRPTEFPRP, the “shrunken log2 fold change” value was -0.191.
